Results taken from paper doi:10.64898/2025.12.30.697075.
Where “and” joins values, the source holds several entries; their conditions need not be identical. Equal entries are not always repeated.

How the values were obtained:
[1] = target: pennycress (Thlaspi arvense) biotin carboxylase (BC) subunit of the plastid heteromeric acetyl-CoA carboxylase (Thlaspi arvense (field pennycress)); test: cross-linking
[2] = target: pennycress (Thlaspi arvense) biotin carboxylase (BC) subunit of the plastid heteromeric acetyl-CoA carboxylase (Thlaspi arvense (field pennycress)); test: cryo-EM structure

stoichiometry N [1]: 2 and 4
stoichiometry N [2]: 2 and 4 and 6
Substance: pennycress (Thlaspi arvense) biotin carboxylase (BC) subunit of the plastid heteromeric acetyl-CoA carboxylase (enzyme)
